# Literature values in article PMC5979445.
# Target: Calmodulin (UniProt P0DP23)
substance,measurement,value
TRPV1 CaM binding domain (from UniProt Q8NER1),Kd,54 nM
